Data as given in article PMC7369618 (Redox Biology, 2020).

Target: EGFP-PKM2 (UniProt P14618 1-531)
Assay: MST

EGFP-PKM2, sequence (P14618 whole entry): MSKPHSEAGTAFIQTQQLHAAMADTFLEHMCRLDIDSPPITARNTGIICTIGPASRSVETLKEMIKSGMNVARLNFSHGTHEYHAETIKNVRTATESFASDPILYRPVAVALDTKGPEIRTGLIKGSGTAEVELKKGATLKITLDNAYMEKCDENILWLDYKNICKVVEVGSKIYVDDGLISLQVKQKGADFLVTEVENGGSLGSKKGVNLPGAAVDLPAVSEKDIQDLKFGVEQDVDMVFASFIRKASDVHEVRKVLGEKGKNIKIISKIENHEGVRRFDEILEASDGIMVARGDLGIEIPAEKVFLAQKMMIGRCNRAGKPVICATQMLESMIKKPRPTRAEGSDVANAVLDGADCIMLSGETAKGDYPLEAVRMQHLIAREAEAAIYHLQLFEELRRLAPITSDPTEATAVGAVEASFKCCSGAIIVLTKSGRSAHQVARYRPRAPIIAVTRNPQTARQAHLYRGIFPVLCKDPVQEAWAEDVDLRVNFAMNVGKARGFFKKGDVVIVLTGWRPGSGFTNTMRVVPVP

B1: Annexin A5 (sc-4252, Santa Cruz Biotechnology) (natural protein)
chain: MAQVLRGTVTDFPGFDERADAETLRKAMKGLGTDEESILTLLTSRSNAQRQEISAAFKTLFGRDLLDDLKSELTGKFEKLIVALMKPSRLYDAYELKHALKGAGTNEKVLTEIIASRTPEELRAIKQVYEEEYGSSLEDDVVGDTSGYYQRMLVVLLQANRDPDAGIDEAQVEQDAQALFQAGELKWGTDEEKFITIFGTRSVSHLRKVFDKYMTISGFQIEETIDRETSGNLEQLLLAVVKSIRSIPAYLAETLYYAMKGAGTDDHTLIRVMVSRSEIDLFNIRKEFRKNFATSLYSMIKGDTSGDYKKALLLLCGEDD
Kd: 0.001 pM
